Data: patent US20090203538A1 (INSTITUTE FOR ANTIBODIES, published 2009)

B1: 015-143 antibody (antibody, V domains shown)
VH: QVQLVQSGAEVKKPGASVKVSCKASGYTFTSYGISWVRQAPGQGLEWMGWISAYNGNTNYAQKLQGRVTMTTDTSTSTAYMELRSLRSDDTAVYYCARAFRDWGSLRDYWGQGTLVTVSR
VL: QSVLTQPPSVSAAPGQKVTISCSGSSSNIGNNYVSWYQQLPGTAPKLLIYDNNKRPSGIPDRFSGSKSGTSATLGITGLQTGDEADYYCGTWDSSLSAVVFGGGTKLTVLG
notes: Clone of the scFv-CL-cp3 phage library
B2: 015-136 antibody (antibody, V domains shown)
VH: QVQLVQSGSELKKPGASVKVSCKASGYIFTRYGINWVRQAPGQGLEWMGWINTNTGNPTYAQGFTGRVVFSLDTSVSTAYLQISSLKAEDTAMYYCAISSGFGYYFDYWGQGTLVTVSR
VL: DIQMTQSPSSVSASVGDRVTITCRASQSISRWLAWYQQKPGKAPKFLIYAGSSLQSGVPSRFSGSGSGTDFTLTISSLQPEDFATYYCQQTNSFPLTFGGGTKVEIK
notes: as for B1
B3: 015-209 antibody (antibody, V domains shown)
VH: EVQLVESGAEVKKPGESLKISCKGSGYSFTSYWIGWVRQMPGKGLEWMGIIYPGDSDTRYSPSFQGQVTISADKSISTAYLQWSSLKASDTAMYYCARLAVGAYQYYFDYWGQGTLVTVSR
VL: QTVVTQEPSFSVSPGGTVTLTCGLSSGSVSTSYYPSWYQQTPGQAPRTLIYSTNTRSSGVPDRFSGSILGNKAALTITGAQADDESDYYCVLYMGSGISVFGGGTKLTVLG
notes: as for B1
B4: 086-061 antibody (antibody, V domains shown)
VH: QVQLVQSGAEVKKPGESLKISCKGSGYSFTSYWIGWVRQMPGKGLEWMGIIYPGDSDTRYSPSFQGQVTISADKSISTAYLQWSSLKASDTAMYYCARHNSNYYYYYMDVWGKGTLVTVSR
VL: QTVVTQEPSFSVSPGGTVTLTCGLSSGSVSTSYYPSWYQQTPGQAPRTLIYSTNTRSSGVPDRFSGSILGNKAALTITGAQADDESDYYCVLYMGSGISVFGGGTKLTVLG
notes: as for B1
B5: 053-216 antibody (antibody, V domains shown)
VH: EVQLVESGGGLIRPGGSLRLSCTASGFTFSSYTMNWVRQAPGKGLEWLSYISGGSGTKFYADSVKGRFTVSRDNAKNSLYLEMNSLRPEDTAVYYCALVSYSSPGFDYWGQGTLVTVSS
VL: SYELTQPPSVSVSPGQTASITCSGDKLGDKYVYWYQQKPGQSPILLIFQDSERPSGIPERFSGSNSGNTATLTISGTQAMDEADYYCQAWDSSAAVFGGGTKLTVLG
notes: as for B1
B6: 015-044 antibody (antibody, V domains shown)
VH: QVQLQESGPGLVKPSETLSLTCTVSGGSISSSSYYWGWIRQPPGKGLEWIGSIYYSGSTYYNPSLKSRVTISVDTSKNQFSLKLSSVTAADTAVYYCAMRAYGSGSYDYWGQGTLVTVSR
VL: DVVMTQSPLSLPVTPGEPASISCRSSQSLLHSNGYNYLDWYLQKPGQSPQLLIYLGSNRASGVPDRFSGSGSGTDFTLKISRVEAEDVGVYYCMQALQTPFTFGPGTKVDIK
notes: as for B1
B7: 039-016 antibody (antibody, V domains shown)
VH: EVQLVESGGNLVQPGGSLRLSCAASGFTFSRYWMTWVRQAPGKGLEWISSVSSSGSTIYYADSVKGRFTISRDNAKNSLYLQMNSLRVEDTAVYYCARDYWPGWYFDLWGRGTLVTVSR
VL: QAVLTQPSSLSASPGASASLTCTFRSDISVGSYRIYWYQQKPGSPPQFLLKYTSDSDKQQGSGVPSRFSGSKDVSANAGILLISGLQSEDEADYYCMTWHNTASVFGGGTKLAVLG
notes: as for B1
B8: 075-110 antibody (antibody, V domains shown)
VH: EVQLVESGGGLVQPGGSLRLSCSASGFTFSNYWMTWVRQAPGKGLEWISSISSSGSTIYYADSVKGRFTISRDNAKNSLYLQMNSLRVEDTAVYYCARDYWPGWYFDLWGRGTLVTVSR
VL: QAVLTQPSSLSASPGASASLTCTFRSDISVGSYRIYWYQQKPGSPPQFLLKYTSDSDKQQGSGVPSRFSGSKDVSANAGILLISGLQSEDEADYYCMTWHNTASVFGGGTKLAVLG
notes: as for B1
B9: 015-102 antibody (antibody, V domains shown)
VH: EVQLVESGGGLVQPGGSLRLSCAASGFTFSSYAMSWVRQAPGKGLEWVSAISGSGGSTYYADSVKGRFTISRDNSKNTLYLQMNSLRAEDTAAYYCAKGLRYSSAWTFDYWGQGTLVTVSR
VL: QSALTQPASVSGSPGQSITISCTGTSSDVGGYNYVSWYQQHPGKAPKLMIYDVSNRPSGVSNRFSGSKSGNTASLTISGLQAEDEADYYCSSYTSSSTPVVFGGGTKLTVLG
notes: as for B1

Each binder was assayed against T1, HER2 (Homo sapiens (Human), UniProt P04626 23-1255) (assay: antigen assigned by the filing's classifying and identification method; details for this clone not given).
T1 construct: Native protein on cancer cell lines; also called erbB-2; ErbB2
B1: binds.
B2: binds.
B3: binds.
B4: binds.
B5: binds.
B6: binds.
B7: binds.
B8: binds.
B9: binds.
